# Patent publication US20210340217A1, “NOVEL PEPTIDES AND COMBINATION OF PEPTIDES FOR USE IN IMMUNOTHERAPY AGAINST OVARIAN CANCER AND OTHER CANCERS” (Immatics Biotechnologies GmbH, priority 2017, published 2021)
# Biological target: HLA-B*07:02 (Homo sapiens, UniProt P01889)
# Experiment: MHC binding assay (UV-ligand exchange, beta2m ELISA)
# Conditions: peptide exchange yield
# From the text: (§1) Candidate peptides for T cell based therapies according to the present invention were further tested for their MHC binding capacity (affinity). The individual peptide-MHC complexes were produced by UV-ligand exchange, where a UV-sensitive peptide is cleaved upon UV-irradiation, and exchanged with the peptide of interest as analyzed. Only peptide candidates that can effectively bind and stabilize the peptide-receptive MHC molecules prevent dissociation of the MHC complexes. To determine the yield of the exchange reaction, an ELISA was performed based on the detection of the light chain (β2m) of stabilized MHC complexes. The assay was performed as generally described in Rodenko et al. (Rodenko et al., 2006).
# (§2) 96 well MAXISorp plates (NUNC) were coated over night with 2 ug/ml streptavidin in PBS at room temperature, washed 4× and blocked for 1 h at 37° C. in 2% BSA containing blocking buffer. Refolded HLA-A*02:01/MLA-001 monomers served as standards, covering the range of 15-500 ng/ml. Peptide-MHC monomers of the UV-exchange reaction were diluted 100-fold in blocking buffer. Samples were incubated for 1 h at 37° C., washed four times, incubated with 2 ug/ml HRP conjugated anti-β2m for 1h at 37° C., washed again and detected with TMB solution that is stopped with […]. Absorption was measured at 450 nm. Candidate peptides that show a high exchange yield (preferably higher than 50%, most preferred higher than 75%) are generally preferred for a generation and production of antibodies or fragments thereof, and/or T cell receptors or fragments thereof, as they show sufficient avidity to the MHC molecules and prevent dissociation of the MHC complexes.
row,Substance,Peptide exchange
1,322 (SPDPSKHLL; listed as Homo sapiens) [compound 322],“++” (>20% = ++)
2,321 (SPMDTFLLI; listed as Homo sapiens) [compound 321],“++” (>20% = ++)
3,135 (RVRSTISSL; listed as Homo sapiens) [compound 135],“+++” (>50 = +++)
4,388 (SPAPLKLSRTPA; listed as Homo sapiens) [compound 388],“++” (>20% = ++)
5,139 (SPQSMSNTL; listed as Homo sapiens) [compound 139],“+++” (>50 = +++)
6,371 (LYVDGFTHW; listed as Homo sapiens) [compound 371],“++” (>20% = ++)
7,351 (NVLTSTPAF; listed as Homo sapiens) [compound 351],“++” (>20% = ++)
8,386 (FPFNPLDF; listed as Homo sapiens) [compound 386],“++” (>20% = ++)
9,367 (TPSVVTEGF; listed as Homo sapiens) [compound 367],“++” (>20% = ++)
10,145 (SPSSPMSTF; listed as Homo sapiens) [compound 145],“++” (>20% = ++)
11,345 (LPTSESLVSF; listed as Homo sapiens) [compound 345],“++” (>20% = ++)
12,35 (FPDNQRPAL; listed as Homo sapiens) [compound 35],“+++” (>50 = +++)
13,355 (SPLVTSHIM; listed as Homo sapiens) [compound 355],“+++” (>50 = +++)
14,334 (FPYSEVTTL; listed as Homo sapiens) [compound 334],“+++” (>50 = +++)
15,136 (SPFSAEEANSL; listed as Homo sapiens) [compound 136],“+++” (>50 = +++)
16,343 (LPSVSGVKTTF; listed as Homo sapiens) [compound 343],“++” (>20% = ++)
17,122 (YPGFPQSQY; listed as Homo sapiens) [compound 122],“++” (>20% = ++)
18,359 (SPSTIKLTM; listed as Homo sapiens) [compound 359],“+++” (>50 = +++)
19,324 (VPYRVVGL; listed as Homo sapiens) [compound 324],“++” (>20% = ++)
20,319 (SPAEPSVYATL; listed as Homo sapiens) [compound 319],“++++” (>75% = ++++)
21,34 (LPRGPLASLL; listed as Homo sapiens) [compound 34],“+++” (>50 = +++)
22,320 (FPMSPVTSV; listed as Homo sapiens) [compound 320],“+++” (>50 = +++)
23,387 (APLKLSRTPA; listed as Homo sapiens) [compound 387],“+++” (>50 = +++)

row,Substance,Peptide exchange
1,364 (TPLATTQRF; listed as Homo sapiens) [compound 364],“++” (>20% = ++)
2,311 (RPLFYVVSL; listed as Homo sapiens) [compound 311],“++” (>20% = ++)
3,126 (KPGPEDKL; listed as Homo sapiens) [compound 126],“++” (>20% = ++)
4,143 (SPAMTSTSF; listed as Homo sapiens) [compound 143],“++” (>20% = ++)
5,346 (LPWDTSTTLF; listed as Homo sapiens) [compound 346],“+++” (>50 = +++)
6,41 (RVRSRISNL; listed as Homo sapiens) [compound 41],“+++” (>50 = +++)
7,349 (MPSLSEAMTSF; listed as Homo sapiens) [compound 349],“+++” (>50 = +++)
8,142 (TPGLRETSI; listed as Homo sapiens) [compound 142],“++” (>20% = ++)
9,356 (SPNEFYFTV; listed as Homo sapiens) [compound 356],“+++” (>50 = +++)
10,141 (SPMTSLLTSGL; listed as Homo sapiens) [compound 141],“+++” (>50 = +++)
11,130 (FPRLVGPDF; listed as Homo sapiens) [compound 130],“+++” (>50 = +++)
12,348 (MPNSAIPFSM; listed as Homo sapiens) [compound 348],“+++” (>50 = +++)
13,127 (APRAGSQVV; listed as Homo sapiens) [compound 127],“+++” (>50 = +++)
14,392 (KPIESTLVA; listed as Homo sapiens) [compound 392],“+++” (>50 = +++)
15,375 (AAASPLLLL; listed as Homo sapiens) [compound 375],“++” (>20% = ++)
16,318 (FPNRLNLEA; listed as Homo sapiens) [compound 318],“+++” (>50 = +++)
17,331 (FPHPEMTTSM; listed as Homo sapiens) [compound 331],“+++” (>50 = +++)
18,354 (SPLPVTSLL; listed as Homo sapiens) [compound 354],“+++” (>50 = +++)
19,333 (FPHSEMTTVM; listed as Homo sapiens) [compound 333],“+++” (>50 = +++)
20,146 (IPRPEVQAL; listed as Homo sapiens) [compound 146],“+++” (>50 = +++)
21,149 (GPREALSRL; listed as Homo sapiens) [compound 149],“+++” (>50 = +++)
22,293 (VPDSGATATAY; listed as Homo sapiens) [compound 293],“++” (>20% = ++)
23,361 (SPTHVTQSL; listed as Homo sapiens) [compound 361],“+++” (>50 = +++)

row,Substance,Peptide exchange
1,360 (SPSVSSNTY; listed as Homo sapiens) [compound 360],“++” (>20% = ++)
2,132 (IPGPAQSTI; listed as Homo sapiens) [compound 132],“++” (>20% = ++)
3,369 (FPHSEMTTV; listed as Homo sapiens) [compound 369],“+++” (>50 = +++)
4,344 (LPTQTTSSL; listed as Homo sapiens) [compound 344],“+++” (>50 = +++)
5,36 (APAAWLRSA; listed as Homo sapiens) [compound 36],“++” (>20% = ++)
6,300 (IPMAAVKQAL; listed as Homo sapiens) [compound 300],“+++” (>50 = +++)
7,377 (RPRSPAGQVAAA; listed as Homo sapiens) [compound 377],“+++” (>50 = +++)
8,383 (TPTKETVSL; listed as Homo sapiens) [compound 383],“+++” (>50 = +++)
9,296 (YPLRGSSI; listed as Homo sapiens) [compound 296],“++” (>20% = ++)
10,305 (TPWAESSTKF; listed as Homo sapiens) [compound 305],“++” (>20% = ++)
11,38 (SPHPVTALLTL; listed as Homo sapiens) [compound 38],“+++” (>50 = +++)
12,125 (VPVYILLDEM; listed as Homo sapiens) [compound 125],“++” (>20% = ++)
13,314 (VPDQPHPEI; listed as Homo sapiens) [compound 314],“+++” (>50 = +++)
14,120 (RPAMNYDKL; listed as Homo sapiens) [compound 120],“++” (>20% = ++)
15,309 (FPQSQYPQY; listed as Homo sapiens) [compound 309],“++++” (>75% = ++++)
16,358 (SPSPVTSTL; listed as Homo sapiens) [compound 358],“+++” (>50 = +++)
17,138 (SPMATTSTL; listed as Homo sapiens) [compound 138],“+++” (>50 = +++)
18,119 (APLPRPGAVL; listed as Homo sapiens) [compound 119],“+++” (>50 = +++)
19,390 (NPDLRRNVL; listed as Homo sapiens) [compound 390],“+++” (>50 = +++)
20,37 (RPLFQKSSM; listed as Homo sapiens) [compound 37],“+++” (>50 = +++)
21,332 (FPHSEMTTL; listed as Homo sapiens) [compound 332],“+++” (>50 = +++)

# Biological target: HLA-B*44:02 (Homo sapiens, UniProt P01889, A223V/A65T/A93T/A95T/D201E/D98Y/E176V/E187L/E204Q/E69K/G107R/H137Y/K202T/L105A/L119I/N104T/N87E/Q56L/Q94N/R106L/R155S/R180D/S101N/S121R/S35A/S48T/T118I/V36M/W191S/Y140D/Y91S)
# Experiment: as above
# Conditions: peptide exchange yield
# From the text: as §1, §2
row,Substance,Peptide exchange
1,432 (EEQYIAQF; listed as Homo sapiens) [compound 432],“+” (>10% = +)
2,417 (AEHFSMIRA; listed as Homo sapiens) [compound 417],“++” (>20% = ++)
3,404 (NEAIMHQY; listed as Homo sapiens) [compound 404],“++” (>20% = ++)
4,196 (REMPGGPVW; listed as Homo sapiens) [compound 196],“+++” (>50 = +++)
